Assay results published in patent US20070054851A1.

Legend:
[1] = target: ErbB1 receptor (EGF receptor) on HeLa 229 cells (UniProt P00533); assay: cell-based or functional assay
ErbB1 receptor = ErbB1 receptor (UniProt P00533); assay: cell-based or functional assay

PEGylated betacellulin produced using the mPEG-SMB-20K reagent, sequence (P35070 other isoform, or with tags, fused parts or gaps limits assumed): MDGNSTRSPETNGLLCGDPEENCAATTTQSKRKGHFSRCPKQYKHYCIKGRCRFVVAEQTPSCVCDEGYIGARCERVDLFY
PEGylated betacellulin produced using the mPEG-ButyrALD-20K reagent, sequence (P35070 other isoform, or with tags, fused parts or gaps limits assumed): as above
UniProt P35070, sequence (P35070 other isoform, or with tags, fused parts or gaps limits assumed): as above

activity % (phospho-EGFR pY1068 ELISA, HeLa cells; SEC column S70; 40 nM submitted to assay) [1]	activity % (phospho-EGFR pY1068 ELISA, HeLa cells; SEC column S200; 40 nM submitted to assay) [1]	activity in phospho-EGFR pY1068 ELISA on HeLa 229 cells, against unreacted betacellulin (ErbB1 receptor; scale: % reduction against unreacted betacellulin)	ELISA activity is equivalent to [BTC] nM (phospho-EGFR pY1068 ELISA, HeLa cells; SEC column S200; 40 nM submitted to assay) [1]	activity in phospho-EGFR pY1068 ELISA on HeLa 229 cells, against unreacted betacellulin (fold lower than unreacted betacellulin) (ErbB1 receptor)	ELISA activity is equivalent to [BTC] nM (phospho-EGFR pY1068 ELISA, HeLa cells; SEC column S70; 40 nM submitted to assay) [1]	Substance
58%	55%	< 50	–	–	–	PEGylated betacellulin produced using the mPEG-ButyrALD-20K reagent (from UniProt P35070 32-111) (ligand)
26%	34%	–	14 nM	3	–	PEGylated betacellulin produced using the mPEG-SMB-20K reagent (from UniProt P35070 32-111) (ligand)
0%	–	–	–	–	0 nM	Unreacted (row label under 'PEGylation chemistry'; taken as the unreacted betacellulin fraction from the S70 size exclusion column) (from UniProt P35070 32-111) (ligand)
